This is an account of results in the supplement of paper PMC9170038.

The data set has as its system MS2 coat protein. Briefly: apparent KD of MS2 coat protein; designed switch direction (-1 OFF switch, 1 ON switch): 1; higher = weaker reporter binding. In outline: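 SNAP-549-labelled MS2 coat protein was titrated, doubling from 0.7 or 1.5 nM to 3 µM, over designed RNA switches transcribed on Illumina chips by stalled E. coli RNA polymerase. Runs were done without input, with 200 uM small-molecule ligand, or with an oligonucleotide input. Apparent KD is the per-design median over clusters of curve-fitted normalised fluorescence.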

The mark [1] stands for this setting: Eterna round: R95, input ligand: microRNA oligo, concentration not stated.
Setting [2] is: input ligand: microRNA oligo, concentration not stated.
Where [3] appears, read: Eterna round: R95, input ligand: FMN 200 uM.
Setting [4] is: Eterna round: R95, input ligand: none.

As to “GGUAUCUCCAGUGAGGAUAUGCGGCGUAGAACAUGAGGAUCACCCAUGUCCUUCGAAUGGGUUACGCAGAAGGCACUACGGUACC [Robot Arm] (puzzle: Same State 2)”, the “apparent KD of MS2 coat protein” value under setting [1] is 30.1 nM.

Turning to “GGUAUGGACACAGGAUAUGCUUACGAAACGUAAGCAGAAGGGUGAACAUGAGGAUCACCCAUGUACGUGCCAGGGCGUGAGCCC [JL SSNG1 1.77] (Eterna round: R96, puzzle: Same State NG 1)”, the “apparent KD of MS2 coat protein” value is, setting by setting: (input ligand: FMN 200 uM) 1420 nM; under setting [2], 29.8 nM; (input ligand: none) 920 nM.

Turning to “GGUAUUGACACAGGAUAUGCUUACGAAACGUAAGCAGAAGGGUGAACAUGAGGAUCACCCAUGUAUGUACCAGGGCGUGAGCCC [JL SSNG1 1.74] (Eterna round: R96, puzzle: Same State NG 1)”, the “apparent KD of MS2 coat protein” value came to 169 nM (input ligand: FMN 200 uM), 875 nM under setting [2] and 1880 nM (input ligand: none).

Consider “GGUCCAGCCUGAGCUGGACAAAAGCAUGUACAUGAGGAUCACCCAUGUUCAUGUACAAGCUUUUUGCUCGUCUUAAG [salish99_208a_r3_037] (puzzle: Sensor for hsa-mir-208a)”, for which the “apparent KD of MS2 coat protein” value was determined as 719 nM under setting [3], 18 nM under setting [1] and 740 nM under setting [4].

With “GGUCCAGCCUGAGCUGGACAAAAGCAUGUACAUGAGGAUCACCCAUGUUCAUGUACAAGCUUUUUGCUCGUCUUACU [salish99_208a_r3_085] (puzzle: Sensor for hsa-mir-208a)”, the “apparent KD of MS2 coat protein” value reads like this: under setting [3], 681 nM; under setting [1], 15 nM; under setting [4], 553 nM.

Consider “GGUCCAGCCUGAGCUGGACCGAAGCAUGUACAUGAGGAUCACCCAUGUCAUGUACAAGCUUUUUGCUCGUCUUAUUG [JL-shm-2.09 JL Mod] (puzzle: Sensor for hsa-mir-208a)”, for which the “apparent KD of MS2 coat protein” value is, setting by setting: under setting [3], 307 nM; under setting [1], 14.9 nM; under setting [4], 285 nM.

As for “GGUCCAUCAUGAGGAUAUGGCACCUUAUUGGUGCCAGAAGGCAUGUAAAUUAUAAUAACAUGAGGAUCACCCAUGUAUUGGACC [Eli NG1ss - 95] (Eterna round: R96, puzzle: Same State NG 1)”, the “apparent KD of MS2 coat protein” value was determined as 44.6 nM (input ligand: FMN 200 uM), 218 nM under setting [2] and 492 nM (input ligand: none).

As to “GGUCGGACUCACAUGAGGAUCACCCAUGUUGCGGAAACGCAGCAGGAUAUCUGUCCGAAAAGGUCAGAGAAGGGCUAACCGACC [Fiskers NG3ss - 57] (Eterna round: R96, puzzle: Same State NG 3)”, the “apparent KD of MS2 coat protein” value by setting is: (input ligand: FMN 200 uM) 197 nM; under setting [2], 596 nM; (input ligand: none) 1310 nM.

Regarding “GGUCGGACUCACAUGAGGAUCACCCAUGUUGCGGAAACGCGGCAGGAUAUCUGUCCGAAAAGGUCAGAGAAGGGCUAACCGACC [Fiskers NG3ss - 56] (Eterna round: R96, puzzle: Same State NG 3)”, the “apparent KD of MS2 coat protein” value reads like this: (input ligand: FMN 200 uM) 52.2 nM; under setting [2], 254 nM; (input ligand: none) 343 nM.

As for “GGUGCUGUCACAGGAUAUCAUGCGGAAAUCGCGUGAGAAGGGUGGACUCUGUCAUUCACGGAGGACAUGAGGAUCACCCAUGUG [SS NG10LRO20] (Eterna round: R96, puzzle: Same State NG 1)”, the “apparent KD of MS2 coat protein” value (input ligand: FMN 200 uM) was found to be 68.5 nM, the “apparent KD of MS2 coat protein” value under setting [2] is 5.67 nM and the “apparent KD of MS2 coat protein” value (input ligand: none) stood at 20.2 nM.

Take “GGUGGGUUACUACCAACACAUGAGGAUCACCCAUGUUUUGGGAAGGAUAUGGUACCUAUUUGGUACCAGAAGGUCCAGUUAGUG [salish99_SSNG3_r04_703] (Eterna round: R96, puzzle: Same State NG 3)”: the “apparent KD of MS2 coat protein” value is, setting by setting: (input ligand: FMN 200 uM) 61.9 nM; under setting [2], 37.7 nM; (input ligand: none) 40 nM.

Consider “GGUGGGUUGCUACCGACACAUGAGGAUCACCCAUGUUUUGGGAAGGAUAUGGUACCUAUUUGGUACCAGAAGGUCCCGUUGGUG [salish99_SSNG3_r04_707] (Eterna round: R96, puzzle: Same State NG 3)”, for which the “apparent KD of MS2 coat protein” value runs as follows: (input ligand: FMN 200 uM) 136 nM; under setting [2], 136 nM; (input ligand: none) 133 nM.

Consider “GGUGUACAUGAGGAUCACCCAUGUCGACCGCUCACAGGAUAUUUAUUACAAACUGGUAGCGGAGAAGGGUGAGGGC [Maarraar] (puzzle: Same State 1)”, for which the “apparent KD of MS2 coat protein” value reads like this: under setting [3], 36.4 nM; under setting [1], 32.6 nM; under setting [4], 37.6 nM.

“GGUUGUUAGUGAGGAUAUACGUACACUCUACAUGAGGAUCACCCAUGUUUUGCCCUUGAUUGUUGGUAGAAGGCACUUGGUUAU [JR_SSNG2_Sub050] (Eterna round: R96, puzzle: Same State NG 2)”: the “apparent KD of MS2 coat protein” value was 40.7 nM (input ligand: FMN 200 uM), 84.7 nM under setting [2] and 87.3 nM (input ligand: none).

In the case of “GGUUUAGUCAAGCGCAGUUGCACUUGAAAACAUGAGGAUCACCCAUGUUUGGGACAAGCUUUGCUCCUCGUCUUUCC [Dicebior] (puzzle: Sensor for hsa-mir-208a)”, the “apparent KD of MS2 coat protein” value was 194 nM under setting [3], 78.2 nM under setting [1] and 386 nM under setting [4].

On to “GUACAUAUCAGAGGAUAUCACGUCGUUUAGACGUGAGAAGGCUGAUCACACAUGAAUAUUAAUACAUGAGGAUCACCCAUGUAC [SSNG1/13-A3] (Eterna round: R96, puzzle: Same State NG 1)”, for which the “apparent KD of MS2 coat protein” value is, setting by setting: (input ligand: FMN 200 uM) 23.8 nM; under setting [2], 31.2 nM; (input ligand: none) 32.7 nM.

Take “GUAGCAUACCGAGGAUAUUCAUAAUACAUGAGGAUCACCCAUGUAAGGCCACAUUAGUGGCCUUGGGAGAAGGCGGAAUGCUAC [Xeonanis - 20 Mod43] (Eterna round: R96, puzzle: Same State NG 2)”: the “apparent KD of MS2 coat protein” value was 13.7 nM (input ligand: FMN 200 uM), 35.7 nM under setting [2] and 44 nM (input ligand: none).

On to “GUAGCAUACCGAGGAUAUUCAUACCGGAAACGGACAUGAGGAUCACCCAUGUGGCGAAAGCCUUGGGAGAAGGCGGAAUGCUAC [Xeonanis - 20 Mod75] (Eterna round: R96, puzzle: Same State NG 2)”, for which the “apparent KD of MS2 coat protein” value runs as follows: (input ligand: FMN 200 uM) 18.4 nM; under setting [2], 341 nM; (input ligand: none) 675 nM.

Regarding “GUAGCAUACCGAGGAUAUUCAUAUAAUAAAUAACAUGAGGAUCACCCAUGUAGGCGAAAGCCUUGGGAGAAGGCGGAAUGCUAC [Xeonanis - 20 Mod57] (Eterna round: R96, puzzle: Same State NG 2)”, the “apparent KD of MS2 coat protein” value is 13.5 nM (input ligand: FMN 200 uM), 108 nM under setting [2] and 112 nM (input ligand: none).

Take “GUAGCAUACCGAGGAUAUUCAUAUAAUAACAUGAGGAUCACCCAUGUUUAUAGGCGAAAGCCUUGGGAGAAGGCGGAAUGCUAC [Xeonanis - 20 Mod63] (Eterna round: R96, puzzle: Same State NG 2)”: the “apparent KD of MS2 coat protein” value came to 10.4 nM (input ligand: FMN 200 uM), 12.3 nM under setting [2] and 18.8 nM (input ligand: none).

As to “GUAGCAUACCGAGGAUAUUCAUAUAAUAAUAACAUGAGGAUCACCCAUGUAAGGCGAAAGCCUUGGGAGAAGGCGGAAUGCUAC [Xeonanis - 20 Mod60] (Eterna round: R96, puzzle: Same State NG 2)”, the “apparent KD of MS2 coat protein” value runs as follows: (input ligand: FMN 200 uM) 11.6 nM; under setting [2], 30 nM; (input ligand: none) 63.6 nM.

Consider “GUAGCAUACCGAGGAUAUUCAUAUACAUGAGGAUCACCCAUGUUUAGGCCACAUUAGUGGCCUUGGGAGAAGGCGGAAUGCUAC [Xeonanis - 20 Mod44] (Eterna round: R96, puzzle: Same State NG 2)”, for which the “apparent KD of MS2 coat protein” value was determined as 13 nM (input ligand: FMN 200 uM), 15.7 nM under setting [2] and 23.4 nM (input ligand: none).

On to “GUAGCAUACCGAGGAUAUUCAUAUACAUGAGGAUCACCCAUGUUUAUAGGCCGAUUACGGCCUUGGGAGAAGGCGGAAUGCUAC [Xeonanis - 20 Mod25] (Eterna round: R96, puzzle: Same State NG 2)”, for which the “apparent KD of MS2 coat protein” value is, setting by setting: (input ligand: FMN 200 uM) 11.7 nM; under setting [2], 9.52 nM; (input ligand: none) 17.6 nM.

For “GUAGCAUACCGAGGAUAUUCAUAUUAACAUGAGGAUCACCCAUGUUGGCCACAUUAGUGGCCUUGGGAGAAGGCGGAAUGCUAC [Xeonanis - 20 Mod38] (Eterna round: R96, puzzle: Same State NG 2)”, the “apparent KD of MS2 coat protein” value is, setting by setting: (input ligand: FMN 200 uM) 19.6 nM; under setting [2], 107 nM; (input ligand: none) 140 nM.

Take “GUAGCAUACCGAGGAUAUUCAUAUUAUAACAUGAGGAUCACCCAUGUAGGCCGAUUACGGCCUUGGGAGAAGGCGGAAUGCUAC [Xeonanis - 20 Mod19] (Eterna round: R96, puzzle: Same State NG 2)”: the “apparent KD of MS2 coat protein” value runs as follows: (input ligand: FMN 200 uM) 27.9 nM; under setting [2], 229 nM; (input ligand: none) 342 nM.

In the case of “GUAGCAUACCGAGGAUAUUCAUAUUAUAACAUGAGGAUCACCCAUGUAGGUCGAUUACGACCUUGGGAGAAGGCGGAAUGCUAC [Xeonanis - 20 Mod35] (Eterna round: R96, puzzle: Same State NG 2)”, the “apparent KD of MS2 coat protein” value (input ligand: FMN 200 uM) came out at 34.7 nM, the “apparent KD of MS2 coat protein” value under setting [2] is 307 nM and the “apparent KD of MS2 coat protein” value (input ligand: none) was 210 nM.

On to “GUAGCAUGCAGCGAGGAUAUUCAUAUUAAAACAUGAGGAUCACCCAUGUAGGCCAAAAGGCCUUGGGAGAAGGCGCACAUGCUAC [Xeonanis - 20] (Eterna round: R96, puzzle: Same State 2)”, for which the “apparent KD of MS2 coat protein” value was 37.8 nM (input ligand: FMN 200 uM), 360 nM under setting [2] and 536 nM (input ligand: none).
